For 19 sequences, protein production results are on record in a protein production outcome set (Wang et al. 2014).
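Note: failed if final PepcDB status was selected cloned or expressed and not failed if soluble or beyond.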

This data set can be described thus: label from the status in PepcDB records.
On to “HYSPFRSQPVDCVLWVKQELVAPNDYNPNNVAPPEKRLLQTSLEADGFTQPVVVIQQRPQAYTIVDGFHRHELACSKAALKKTLKGYLPVTCLTSEAASRDGLMAATIRHNRARGRHQ”, for which the protein production entry is reported as “failed”.
As for “MGKKQKMKKAAQMATAAEKLKTAAEKSKTAADNVVAKEKPAEEASPSPSGSGKKGKPKATQKPNVAKALQKEISSSEDALDVKNKPPAGFSGAKGKPHIMGQMDPAYRNKIKKLMSLAKQLPPNVFSLPNSQKEEGASAAKSCVVEDDQSTDSDDAPDLVEADPKETQPDEQGQLGTVAVRTREVSKQSRGERKARRILMKLDLKPMENVARVTMKKGKNILLYIDQPDVYRVAHSSTYIFFGEICVEDTSTTSVASQAAVKAAERFRGTSPAGRQGNEDGKAPGEESPHDDDDDENDGEDADAMGLHAKDIELVQMQAACSRKKAIQALLKNDNDVVNAIMALTVG”, the entry is “failed”.
With “MHCNDGGPATLGLFSDSDLQQPARVEVLGPQSRVLRGFALPWVEALLPQLDAVLAAAPFRQMQTPGGFTMSVGLSSCGQLGWTTDRSGYRYSPIDPQSQRPWPALPKVFQELAEAAAEAAGFPGFAPDSCLINCYRPGAKMSLHQDKNERDYSAPIVSLSLGLPAIFLFGGRQRSDKSQRVALLHGDVVVWGGVDRLRYHGVLALKDGHHPLLGQQRINLTLRRAGLEHHHHHH”, the protein production entry is given as “failed”.
In the case of “MHKYRLVAKKGEGTFSEVLKAQCIKNGKYVAIKCMKNHFDSLDQVNNLREIQALRRLSPHANIIKLLEVLYDQPTGRLALVFELMDMNIYELIRGRRHYVAEERIKNYMYQLMKSMDHMHRNGIFHRDIKPENILIMDDCLKLADFGSCRGIYSKQPYTEYISTRWYRAPECLLTDGYYNYKMDMWGVGCVFFEIVSLFPLFPGTNELDQITKIHNILGTPPPDLLAKMKKRSAHMDFNFPPKEGSGVAKLIPHVNPECVDLIVKLLMYNPDERLSARQALRHPYFRDLREAEKRQKALLAPDVSNHFTAMEADKARQQQTVSSTGSDHEHPTSAGGDGGAGTGAVGTHDGSAAAAAAAAALPSISGARGHAGPEGGHDNDMG”, the protein production result is listed as “not failed”.
As for “MKPALHTVTSAPALPAYVATGNECALFEHAWRHQLPVLLKGPTGCGKTRFVAHMAARLGLPLHTVACHDDLTAADLTGRYLLKGGDTVWTDGPLTRAVREGGICYLDEVVEARKDVTVVLHPLTDDRRILPLERTGEELAAPKSFMLVVSYNPGYQTLLKALKPSTRQRFVAIEFGFLAPEQEIAVVSAESGLPPDRVRPLVALAGRLRALRGHDLEEGVSTRLVVYCATLIAAGTPIADAVLAGMIEPLTDDSDVKAALLDVARAVIG”, the entry is “failed”; as for “MGDQRFDVLITGGTLVDVVTGELRPADIGIVGALIASVHEPASRRDAAQVIDAGGAYVSPGLIDTHMHIESSMITPAAYAAAVVARGVTTIVWDPHEFGNVHGVDGVRWAAKAIENLPLRAILLAPSCVPSAPGLERGGADFDAAILADLLSWPEIGGIAEIMNMRGVIERDPRMSGIVQAGLAAEKLVCGHARGLKNADLNAFMAAGVSSDHELVSGEDLMAKLRAGLTIELRGSHDHLLPEFVAALNTLGHLPQTVTLCTDDVFPDDLLQGGGLDDVVRRLVRYGLKPEWALRAATLNAAQRLGRSDLGLIAAGRRADIVVFEDLNGFSARHVLASGRAVAEGGRMLVDIPTCDTTVLKGSMKLPLRMANDFLVKSQGAKVRLATIDRPRFTQWGETEADVKDGFVVPPEGATMISVTHRHGMAEPTTKTGFLTGWGRWNGAFATTVSHDSHNLTVFGGNAGDMALAANAVIGTGGGMAVASEGKVTAILPLPLSGLVSDAPLEEVARAFEDLREAVGKVVEWQPPYLVFKACFGATLACNIGPHQTDMGIADVLTGKVMESPVIEVLEHHHHHH”, “failed”.
As for “MAVNPATGKSDFVMMSEQQELGMGARYNQEILKQFPRYNDEKLQAYVQRVGERVARSSHRSNLQYHFTVIDSPDINAFALPGGYIYIHRGLIAYLGSEAELAAVLGHEVGHVTARHSVRQQSQASAWNILGQAVAIGTGVGAAGDLANVLGTAFVRGYGRDMELEADGLGAQYLARAGYDPTAMIQVVRVLKNQEDFAREEAARNGQAVQAGGYHGLFDTHPDNDRRLQEVVGPARQLANGQQEVGREVFLRHLEGMPFGDSASAGVRRGQNFYHAELDFTLSYPAGWKILNQPSALLGYPADEQSFIGMKLVPHDSRLTPAEFLRKNAGQRLAQEESLKQAGLNGYTAVVPGNPARRVAVIYQGDRAYLFVGVVKVGSLETQDDRFLSVIRSFRPLRDKERALAQPRRLHLVQVKAGQTLEQLAAGGEGSLSDSVARLRLLNDLYPSGEPRPGDWLKVVRLEHHHHHH”, the entry is “failed”.
As for “SEAGGLPLELWRMILAYLHLPDLGRCSLVCRAWYELILSLDSTRWRQLCLGCTECRHPNWPNQPDVEPESWREAFKQHYLASKTWTKNALDLESSICFSLFRRRRERRTLSVGPGREFDSLGSALAMASLYDRIVLFPGVYEEQGEIILKVPVEIVGQGKLGEVALLASIDQHCSTTRLCNLVFTPAWFSPIMYKTTSGHVQFDNCNFENGHIQVHGPGTCQVKFCTFKNTHIFLHNVPLCVLENCEFVGSENNSVTVEGHPSADKNWAYKYLLGLIKSSPTFLPTEDSD”, the entry is “not failed”; as for “MKRPRGKPLFKPVKERNPVAVGVAGLLVLTLVALLVYNVDRLPFGGGTTYSADFSESAGLDEGDEVRIAGVKVGQVTGVALDGAKVKVSFEVEDAWIGDRTTAAIAIKTVLGDKYLALDPLGSGRQDPGARIPLARTTSPYDVTQAFQDLSGTVDDIDTGRLAESFETISDTFKDSPPHVRKAATGLSDLSKSISKRDAKLSELLKGSARFTKTLENNKSSFETLIEDGGPLLGELRDRRTAINALLKGSQDLGTELGGLVKDNEKQLGPTLKALGRVTSVLEKNNTRLGETLALVGPYYRLVGNTLGNGRWFDSYLCGVVPRDYLPETSQPSTGCLPPKQPAAAQGSGARLEHHHHHH”, “failed”; as for “MQVELIIKNLKVYNSYFKKFIKSDVLINEGKFLHIGKGYEDRLWSENIIDGEDKYIIPGLIDIHMHIESSMTIPREFSKAAIKHGVTTVVADPHEIANVFGVRGIEEFIKFKGNLDIFYGIPSSVPSTSSSLETTGEKITHNEVKRLLEYDNIICLGEVMNFKDLIEDDDSNINKIINISKEKNIPLEGHCPKIQGVDLSLYIYRGVNGDHTQQSVGSLQEKIQNGMFIEMQHKSMTLENIKFLIENNLYEHFALVTDDVMADKLVKGHLDEILKEAVKLGMSIENAIYASTYTPARRMNLLDRGTIAPGKLADFILLDSIEDFNIYEVYKNGEMVFNRDKGLKEEFFEDKSKLDYRFYNSIELNNITKESLEVKVPNKYKNKVNCRTMKVLKNTTFTEEGEVTLNVYNNILQWEKSSCALIAVFERYGKNNNISFGLVEGEIIKEGAIATTWAHDHHNLMVMGRNISDMTIAANEVINSRGGYVVSKNNEVIAKLELPIGGIISDEPIEIIGEKLGEVRNAMRDLGYNHMNEIMSFSTLSLPVSPALKITDKGLIDVKKGSIVSLFKKGLY”, “failed”.
For “MDRMYEQNQMPHNNEAEQSVLGSIIIDPELINTTQEVLLPESFYRGAHQHIFRAMMHLNEDNKEIDVVTLMDQLSTEGTLNEAGGPQYLAELSTNVPTTRNVQYYTDIVSKHALKRRLIQTADSIANDGYNDELELDAILSDAERRILELSSSRESDGFKDIRDVLGQVYETAEELDQNSGQTPGIPTGYRDLDQMTAGFNRNDLIILAARPSVGKTAFALNIAQKVATHEDMYTVGIFSLEMGADQLATRMICSSGNVDSNRLRTGTMTEEDWSRFTIAVGKLSRTKIFIDDTPGIRINDLRSKCRRLKQEHGLDMIVIDYLQLIQGSGSRASDNRQQEVSEISRTLKALARELECPVIALSQLSRGVEQRQDKRPMMSDIRESGSIEQDADIVAFLYRDDYYNRGGDEDDDDDGGFEPQTNDENGEIEIIIAKQRNGPTGTVKLHFMKQYNKFTDIDYAHADMM”, the protein production entry is recorded as “failed”.
Then “MQVIAFIAPLIDKGMDPLTGVPIRQEVPRLMERTFQENQAETYVLFLINLDRFKLVNDSLGEGYGDQVLQTLVRRLLWQLPNQQWIARVSGDEFIACAAIKGELPKKETLATYISSIIQQPFQVDEVQFTMTASIGAAVYPMDGKSVEMIWNSLERALRHAKARGGNCVSWFCQELKDEWIHPFRLENDLRRAVENQELEHHHHHH”, with “failed”; and “FRAAAVRVRVPATSANLGPGFDALGLALGLYDDVVVRVADSGLHIDIAGEGSETLPRDEKHLLVRSLRTAFDLLGGQPRGLEIVCANRIPHGRGLGSSSAAICAGIVAARAVTIGGEARLDDAALLDLATEIEGHPDNVAACLLGGFTLSWMES”, with “failed”.
As for “MKKDVLIFVKGTQEYPINSLENSIEFFTEGTFYKKGESFYVTYKESELTGLEGTTTTFKIQPNHITLIRYGDVTSTLIFEPGKRHISTYITEEGVIMIGVYTKKMKVDLTENGGEVFVEYAIDLDSHMMSENDFLLKIKEAGVKNLEHHHHHH”, the entry is “not failed”.
As for “MAYIYGFRTLDRRVFYLALSRLIRASGRVSSFIFLPLIFIEIYSISFLITGLILGSSAIAMAFVQYYSGRWTDRIGRRFFLIVIPIPAAVFYFLMFTTVYLHMSVILLIIFWYGTIITNSLQYPAIEASVADVTSTSERLSGYTLIRIMANLGAAVGPLAGGFLAGINFSYIFLLASIFTVIELFILYYNVRETFLPARAIAEKIKLKIFKTDRFFFLFTLVGVFLGFTLRQNGPTLTVYAFDLKNLPLMDIGYLYSLNGIVVIALQMPILRLMSSRSNPVFWRGIGTIYYSIGFVILGIAPTFLYILLAMFIFTVGEDFMSPTTQTIITTLAPAEKKGSYIGSYNLLTSFGRFFGTIFGLYFLFIYQKTTFTFWIIIATSTGVIGLLYIFMSESFIKRTSKIATLPGKA”, the entry is “failed”.
Consider “MKIGVYGASGRIGKLLLEELKGGYKGLALSSVFVRQKCETDFSSFSHAPLVTNDLKAFVRACECVIDFSLPKGVDNLLEALLECPKILVSGTTGLEKETLEKMQQLALKAPLLHAHNMSIGIMMLNQLAFLTSLKLKDADIEIIETHHNLKKDIPSGTALSLYETCAKARGYDEKNALITHREGLRSKESIGIAALRGGDVAGKHTIGFYLEGEYIELSHTATNRSIFAKGALEVALWLKDKAAKKYEINEMFG”, for which the protein production result was “failed”.
Then “MKNLKRRVAVVTALALVAALTYVLWPRSESVHVTAYFPRTVGIYPGSDVRVLGVRIGEVEKITPEGDRVRVELKYDEGRRVPADSKAAIINSSVVSDRYVQLLPVYRKGPVLRNGAVIPESRTAVPVELDRVFGSLHTTADALGPQGANKDGSLSRLLGVSADNLDGQGENLNRTVEDLSQAVTTLSDGRKDLFGTVRNLQVFTAALSADDKSVRSFNTGLAEVAGQLAGERKDLADALKNLGTALGDVSAFVKNNKRSLNSNVKGLSKVTKVLVTQRAALAELLEVAPTGLSNLNNAYNPSAGTLDTRNNAQQAQDPAALMCSVLKTTGDEGGKNPDCKELKKLFDSLPKVPQGSAVTGTVDRTLGGILGASA”, with “failed”.
On to “MFFKQFYDNHLSQASYLVGCQRTGEAIIIDPVRDLSKYIEVADSEGLTITQATETHIHADFASGIRDVAKRLNANIYVSGEGEDALGYKNMPSKTQFVKHGDIIQVGNVKLEVLHTPGHTPESISFLLTDLGGGSSVPMGLFSGDFIFVGDIGRPDLLEKSVQIKGSTEISAKQMYESVQNIKNLPDYVQIWPGHGAGSPCGKALGAIPISTIGYEKINNWAFNEIDETKFIESLTSNQPAPPHHFAQMKQVNQFGMNLYQSYDVYPSLDNKRVAFDLRSKEAFHGGHTKGTINIPYNKNFINQIGWYLDFEKDIDLIGDKSTVEKAKHTLQLIGFDKVAGYRLPKSGISTQSVHSADMTGKEEHVLDVRNDEEWNNGHLDQAVNIPHGKLLNENIPFNKEDKIYVHCQSGVRSSIAVGILESKGFENVVNIREGYQDFPESLKLEHHHHHH”, for which the protein production result was “not failed”.
Then “LDTLRRYHRQTLQDLPMGVCSLAKDQEVLMWNRAIEELTGVGAQKVVGSRLSALPEPWKGLLERFIDAPDEHLHKQRLVYDGHTRWLNLHKAAIEEPLAPGNSGLVLLVEDLTETQLLEDKLVHSERLASIGRLAAGVAHEIGNPITGI”, with “not failed”.
